According to patent publication US10400022B2, “Neuropilin-1 specific binding peptide, fusion protein fused with same, and use thereof” (AJOU UNIVERSITY INDUSTRY-ACADEMIC COOPERATION FOUNDATION, priority 2015, dated 2019):
Where no end group is shown, it is not given here.

Tests used:
[1] = target: T1, NRP1-b1b2 (273-586) protein (Homo sapiens, UniProt O14786); assay: ELISA binding to NRP1-b1b2; details: synthetic peptide not fused to Fc, 100 nM
T1 construct: made in house
Method: The binding affinities of purified Fc-TPP1, Fc-TPP8 and Fc-TPP11 fusion proteins for the b1b2 domains of NRP1 and NRP2 were analyzed by ELISA (Enzyme Linked Immunosorbent Assay).
To examine specificity for NRP1, the control VEGF165A and Fc, A22p, and each of the fusion proteins wherein the selected peptide that binds specifically to NRP1 is fused to the antibody heavy-chain constant Fc region, was biotinylated using a NHS-biotin kit (SIGMA-ALDRICH co., USA).
1 μg of each of NRP1-b1b2 (273-586) protein, NRP2-b1b2 (275-595) protein and the control group VEGFR2 (46-753) was immobilized in each well of a 96-well EIA/RIA plate (COSTAR Corning In., USA) at room temperature for 1 hour, and then washed three times with 0.1% PBST (0.1% Tween20, pH 7.4, 137 mM NaCl, 10 mM Phosphate, 2.7 mM KCl, SIGMA-ALDRICH co., USA) for 10 minutes. After binding with 5% skim milk (5% Skim milk, pH 7.4, 137 mM NaCl, 10 mM Phosphate, 2.7 mM KCl, SIGMA-ALDRICH co., USA) for 1 hour, each well was washed three times with 0.1% PBST (0.1% Tween20, pH 7.4, 137 mM NaCl, 10 mM Phosphate, 2.7 mM KCl, SIGMA-ALDRICH co., USA) for 10 minutes. […] Each well was bound with AP-conjugated anti-biotin antibody (alkaline phosphatase-conjugated anti-biotin mAb, Sigma, USA), and then reacted with pNPP ([…], SIGMA-ALDRICH co., USA), and the absorbance at 405 nm was measured.

[2] = target: T1, NRP1-b1b2 (273-586) protein; assay: Competitive ELISA with VEGF165A / RPARPAR on NRP1-b1b2; assay type: binding
Method: In order to evaluate competitive binding of the TPP11 peptide, which binds specifically to NRP1 without binding to NRP2, and VEGF165A and a RPARPAR peptide, known to bind to the arginine-binding pocket of the NRP1-b1 domain, competitive ELISA was performed.
Specifically, binding NRP1-b1b2 (273-586) protein to each well of a 96-well EIA/RIA plate or a 96-well EIA/RIA black plate (COSTAR Corning In., USA) at room temperature for […], is followed by washing three times with 0.1% PBST (0.1% Tween20, pH 7.4, 137 mM NaCl, 10 mM Phosphate, 2.7 mM KCl, SIGMA-ALDRICH co., USA) for 10 minutes. After binding with 5% skim milk (5% Skim milk, pH 7.4, 137 mM NaCl, 10 mM Phosphate, 2.7 mM KCl, SIGMA-ALDRICH co., USA) for 1 hour, each well was washed three times with 0.1% PBST (0.1% Tween20, pH 7.4, 137 mM NaCl, 10 mM Phosphate, 2.7 mM KCl, SIGMA-ALDRICH co., USA) for 10 minutes. […] Then, each mixture was incubated with AP-conjugated anti-human antibody (alkaline phosphatase-conjugated anti-human mAb, Sigma, USA), and then reacted with pNPP ([…], SIGMA-ALDRICH co., USA), and the absorbance at 405 nm was measured.

biotinylated NRP1-b1b2 = target: T2, biotinylated NRP1-b1b2 (Homo sapiens, UniProt O14786); assay: FACS of yeast surface-displayed clones binding biotinylated NRP1-b1b2; details: yeast surface display, compared with A22p
T2 construct: biotin (chemical label on amines, Sulfo-NHS-LC-biotin); made in house
Description: […] In addition, in the MACS and FACS processes, non-biotinylated NRP2-b1b2 was used as a competitive protein for biotinylated NRP1-b1b2 at a 10-fold higher concentration, and individual clones that bind to NRP1-b1b2 were selected.

[3] = target: T3, NRP1 displayed on the human umbilical vein endothelial cell (HUVEC) surface (Homo sapiens, UniProt O14786); assay: Confocal co-localization with NRP1 on HUVEC surface; assay type: cell-based; details: 1 μM, 30 minutes, 4° C., confocal microscopy
T3 construct: endogenous in cells; host or cells: HUVEC
Method: In an experiment for biological identification of the peptides that binds specifically to NRP1, human umbilical vein endothelial cells (HUVECs) overexpressing NRP1 were used.
Specifically, 5×10^4 HUVEC cells were added to each well of a 24-well plate and incubated in 0.5 ml of EGM2 (Endothelial growth medium, Promocell) medium for 24 hours under the conditions of 5% CO2 and 37° C. […] Next, the medium was removed, and each well was washed with cold PBS. Then, the fusion protein wherein the selected peptide that binds specifically to NRP1 is fused to the antibody heavy-chain constant region was stained with FITC (green fluorescence)-labeled antibody (Sigma) that specifically recognizes Fc, and NRP1 was stained with primary antibody (Abcam) that recognizes NRP1 and with TRITC (red fluorescence)-labeled secondary antibody. The nucleus was stained (blue fluorescence) with DAPI and analyzed by confocal microscopy.

VE-cadherin = assay: Western blot of VE-cadherin in HUVEC; assay type: cell-based, human
Method: Specifically, 5×10^5 HUVEC cells were seeded into each well of a 6-well plate and incubated for 24 hours, […] constant Fc region and the selected peptide that binds specifically to NRP1, for 10 minutes, followed by Western blot analysis. After SDS-PAGE, the gel was transferred to a PVDF membrane, and detection was performed using primary antibodies (SantaCruz) that recognize VE-cadherin and β-actin and using HRP-conjugated secondary antibody (SantaCruz), and analysis was performed using ImageQuant LAS4000 mini (GE Healthcare).

[4] = system: human umbilical vein endothelial cells (HUVECs); assay: Transwell assay of penetration of vascular endothelial cells (dextran-FITC); assay type: cell-based; details: 1 μM for 30 minutes (VEGF165A about 1.3 nM); dextran-FITC fluorescence in lower chamber
Method: Specifically, 5×10^4 human umbilical vein endothelial cells (HUVECs) were seeded into the upper chamber of a transwell plate (Corning) and incubated in EGM2 for 3 days under the conditions of 37° C. and 5% CO2. […] Then, 50 μl of dextran-FITC (Sigma) was added to the upper chamber. After 30 minutes, based on the principle according to which the fluorescent substance would be observed when penetration into the vascular endothelial cells was increased, the medium was sampled from the lower chamber and the fluorescence thereof was measured.

[5] = system: A431 cells expressing neuropilin-1; assay: Immunohistochemistry of tumor tissue penetration in A431 xenograft; assay type: in vivo, Balb/c nude mice; details: 10 mg/kg intravenously, 15 hours after injection
Method: At 15 hours after injection, the tumor was extracted from the mice and subjected to immunohistochemistry. The extracted tumor tissue was sectioned to a thickness of 20 μm by a frozen-section method, and the blood vessels were stained with the primary antibody CD31 antibody (BD Pharmingen) and TRITC (red fluorescence)-labeled secondary antibody that recognizes the same. In addition, to observe the distribution of the Fc-TPP1, Fc-TPP8 and Fc-TPP11 fusion proteins in the tissue, an FITC (green fluorescence)-labeled antibody that recognizes Fc was used.

E-cadherin = assay: Western blot of E-cadherin in FaDu cells; assay type: cell-based; details: human head and neck cancer FaDu cells
Method: Specifically, 5×10^5 HUVEC cells were seeded into each well of a 6-well plate and incubated for 24 hours, and then treated with 0.1 μM of the fusion protein of the antibody heavy-chain constant Fc region and the selected peptide that binds specifically to NRP1, for 10 minutes, followed by Western blot analysis. After SDS-PAGE, the gel was transferred to a PVDF membrane, and detection was performed using primary antibodies (SantaCruz) that recognize VE-cadherin and β-actin and using HRP-conjugated secondary antibody (SantaCruz), and analysis was performed using ImageQuant LAS4000 mini (GE Healthcare).
In order to examine whether the Fc-TPP1, Fc-TPP8 and Fc-TPP11 fusion proteins also have an enhanced ability to penetrate cancer cells, a change in E-cadherin in human head and neck cancer FaDu cells expressing NRP1 was analyzed by Western blot analysis under the same conditions as described above.

[6] = system: VEGF165A-induced angiogenesis; assay: In vivo matrigel plug assay; design: species or system Balb/c nude mice; details: 200 μg in matrigel plug with A431 cells, 8 days
Method: Additionally, in order to examine anti-angiogenesis activity in vivo, a matrigel plug assay was performed. […] After 8 days, the matrigel plug was extracted, imaged (FIG. 15(B)), and then sectioned to a thickness of 20 μm by a frozen-section method, and subjected to immunohistochemistry. The blood vessels were stained with the primary antibody CD31 and a TRITC (red fluorescence)-labeled secondary antibody recognizing the same, and the density of the blood vessels was measured.

“TPP11: NRP1-targeting peptide HTPGNSKPTRTPRR, SEQ ID NO: 3 (Synthetic construct (TPP11))” was tested, and the “lower affinity than Fc-TPP11 for NRP1-b1b2 protein” value [1] was “at least 100 fold”, the “competitive binding of synthesized peptide with RPARPAR peptide and VEGF165A” value [2] was “inhibited the binding of the RPARPAR peptide and VEGF165 to NRP1” and the “binding to 100 nM biotinylated NRP1-b1b2 (mean fluorescence intensity)” value (shortened to “binding to 100 nM biotinylated NRP1-b1b2”) (biotinylated NRP1-b1b2) was “showed higher mean fluorescence intensities”.

“TPP1: NRP1-targeting peptide HTPGNSNQFVLTSTRPPR, SEQ ID NO: 1 (Synthetic construct (TPP1))” was tested, and the “binding to 100 nM biotinylated NRP1-b1b2” value (biotinylated NRP1-b1b2) was “showed higher mean fluorescence intensities”.

In the case of “TPP8: NRP1-targeting peptide HTPGIATRTPR, SEQ ID NO: 2 (Synthetic construct (TPP8))”, the “binding to 100 nM biotinylated NRP1-b1b2” value (biotinylated NRP1-b1b2) is reported as “showed higher mean fluorescence intensities”.

For “Fc-A22p: control Fc fusion of A22p peptide (HTPGNSNKWKHLQENKKGRPRR) that binds to both NRP1 and NRP2 (also: fused to Fc, not in chain)”, the “binding to NRP1 on the HUVEC cell surface” value [3] was “did bind to NRP1 on the HUVEC cell surface”, the “change in VE-cadherin at 1 μM” value (VE-cadherin; 1 μM) was “VE-cadherin significantly decreased” and the “change in VE-cadherin” value (VE-cadherin; 10 minutes) was “a decrease in VE-cadherin was observed”. For the same substance, the “ability to penetrate vascular endothelial cells” value [4] was “had an increased ability to penetrate vascular endothelial cells”, the “tumor tissue accumulation and penetration” value [5] was “selectively reached tumor tissue” and the “change in E-cadherin” value (E-cadherin) was “induced a decrease in E-cadherin”. The “binding to NRP1-b1b2 competitively with VEGF165A” value ([2]; VEGF165A 25 nM to 0.02 nM) was “overlapped a portion of NRP1 to which VEGF165A did bind” and the “VEGF165A-induced angiogenesis (density of blood vessels, CD31)” value [6] was “inhibited VEGF165A-induced angiogenesis in living mice”.
